# Reference: US20220048967A1 (published 2022)
# Numbered stars: 1 amine (or outer) side, 2 acyl side, 3 side chain; on linkers, the order of the positions; unused ones are H or OH. Square brackets hold non-standard residues; d marks the D form. Side chains are listed from the residue outwards. Ends that are not written are not given here. * marks the point of attachment. C20 diacid = O=C(O)CCCCCCCCCCCCCCCCCCC(=O)*; γGlu = O=C(O)[C@H](CCC(=O)[*:2])N[*:1]; αMeP = C[C@@]1(C(=O)O)CCCN1; AEEA = NCCOCCOCC(=O)O
# T1: human gastric inhibitory peptide receptor (GIPR) (human, UniProt P48546 22-466)
# T1 sequence (looked up): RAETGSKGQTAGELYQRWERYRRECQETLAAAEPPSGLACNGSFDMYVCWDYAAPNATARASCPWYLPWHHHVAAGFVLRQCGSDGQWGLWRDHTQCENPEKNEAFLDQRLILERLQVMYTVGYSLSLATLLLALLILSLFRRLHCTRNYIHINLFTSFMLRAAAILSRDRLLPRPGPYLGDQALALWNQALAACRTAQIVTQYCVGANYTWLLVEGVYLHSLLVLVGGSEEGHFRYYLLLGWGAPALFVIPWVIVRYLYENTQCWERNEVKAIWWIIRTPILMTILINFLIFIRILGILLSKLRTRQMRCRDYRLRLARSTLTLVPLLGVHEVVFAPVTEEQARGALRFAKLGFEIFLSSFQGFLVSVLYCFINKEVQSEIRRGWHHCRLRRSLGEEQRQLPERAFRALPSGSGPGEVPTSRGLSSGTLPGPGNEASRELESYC
# B1: Example 193 (peptide)
# peptide: Y[αMeP]EGTFTSDYSILLDEK([AEEA-AEEA-γGlu-C20 diacid])AQQAFIEYLIEGGPSSGAPPPS-NH2
# modifications: N-terminus assumed
# SMILES: CC[C@H](C)[C@H](NC(=O)[C@H](CC(C)C)NC(=O)[C@H](Cc1ccc(O)cc1)NC(=O)[C@H](CCC(=O)O)NC(=O)[C@@H](NC(=O)[C@H](Cc1ccccc1)NC(=O)[C@H](C)NC(=O)[C@H](CCC(N)=O)NC(=O)[C@H](CCC(N)=O)NC(=O)[C@H](C)NC(=O)[C@H](CCCCNC(=O)COCCOCCNC(=O)COCCOCCNC(=O)CC[C@H](NC(=O)CCCCCCCCCCCCCCCCCCC(=O)O)C(=O)O)NC(=O)[C@H](CCC(=O)O)NC(=O)[C@H](CC(=O)O)NC(=O)[C@H](CC(C)C)NC(=O)[C@H](CC(C)C)NC(=O)[C@@H](NC(=O)[C@H](CO)NC(=O)[C@H](Cc1ccc(O)cc1)NC(=O)[C@H](CC(=O)O)NC(=O)[C@H](CO)NC(=O)[C@@H](NC(=O)[C@H](Cc1ccccc1)NC(=O)[C@@H](NC(=O)CNC(=O)[C@H](CCC(=O)O)NC(=O)[C@]1(C)CCCN1C(=O)[C@@H](N)Cc1ccc(O)cc1)[C@@H](C)O)[C@@H](C)O)[C@@H](C)CC)[C@@H](C)CC)C(=O)N[C@@H](CCC(=O)O)C(=O)NCC(=O)NCC(=O)N1CCC[C@H]1C(=O)N[C@@H](CO)C(=O)N[C@@H](CO)C(=O)NCC(=O)N[C@@H](C)C(=O)N1CCC[C@H]1C(=O)N1CCC[C@H]1C(=O)N1CCC[C@H]1C(=O)N[C@@H](CO)C(N)=O
# B2: Example 195 (peptide)
# peptide: Y[αMeP]EGTFTSDYSILLDRK([AEEA-AEEA-γGlu-C20 diacid])AQQAFIEYLIEGGPSSGAPPPS-NH2
# modifications: N-terminus assumed
# SMILES: CC[C@H](C)[C@H](NC(=O)[C@H](CC(C)C)NC(=O)[C@H](Cc1ccc(O)cc1)NC(=O)[C@H](CCC(=O)O)NC(=O)[C@@H](NC(=O)[C@H](Cc1ccccc1)NC(=O)[C@H](C)NC(=O)[C@H](CCC(N)=O)NC(=O)[C@H](CCC(N)=O)NC(=O)[C@H](C)NC(=O)[C@H](CCCCNC(=O)COCCOCCNC(=O)COCCOCCNC(=O)CC[C@H](NC(=O)CCCCCCCCCCCCCCCCCCC(=O)O)C(=O)O)NC(=O)[C@H](CCCNC(=N)N)NC(=O)[C@H](CC(=O)O)NC(=O)[C@H](CC(C)C)NC(=O)[C@H](CC(C)C)NC(=O)[C@@H](NC(=O)[C@H](CO)NC(=O)[C@H](Cc1ccc(O)cc1)NC(=O)[C@H](CC(=O)O)NC(=O)[C@H](CO)NC(=O)[C@@H](NC(=O)[C@H](Cc1ccccc1)NC(=O)[C@@H](NC(=O)CNC(=O)[C@H](CCC(=O)O)NC(=O)[C@]1(C)CCCN1C(=O)[C@@H](N)Cc1ccc(O)cc1)[C@@H](C)O)[C@@H](C)O)[C@@H](C)CC)[C@@H](C)CC)C(=O)N[C@@H](CCC(=O)O)C(=O)NCC(=O)NCC(=O)N1CCC[C@H]1C(=O)N[C@@H](CO)C(=O)N[C@@H](CO)C(=O)NCC(=O)N[C@@H](C)C(=O)N1CCC[C@H]1C(=O)N1CCC[C@H]1C(=O)N1CCC[C@H]1C(=O)N[C@@H](CO)C(N)=O
# B3: Example 196 (peptide)
# peptide: Y[αMeP]EGTFTSDYSILLDRK([AEEA-AEEA-γGlu-C20 diacid])AQHAFIEYLIEGGPSSGAPPPS-NH2
# modifications: N-terminus assumed
# SMILES: CC[C@H](C)[C@H](NC(=O)[C@H](CC(C)C)NC(=O)[C@H](Cc1ccc(O)cc1)NC(=O)[C@H](CCC(=O)O)NC(=O)[C@@H](NC(=O)[C@H](Cc1ccccc1)NC(=O)[C@H](C)NC(=O)[C@H](Cc1c[nH]cn1)NC(=O)[C@H](CCC(N)=O)NC(=O)[C@H](C)NC(=O)[C@H](CCCCNC(=O)COCCOCCNC(=O)COCCOCCNC(=O)CC[C@H](NC(=O)CCCCCCCCCCCCCCCCCCC(=O)O)C(=O)O)NC(=O)[C@H](CCCNC(=N)N)NC(=O)[C@H](CC(=O)O)NC(=O)[C@H](CC(C)C)NC(=O)[C@H](CC(C)C)NC(=O)[C@@H](NC(=O)[C@H](CO)NC(=O)[C@H](Cc1ccc(O)cc1)NC(=O)[C@H](CC(=O)O)NC(=O)[C@H](CO)NC(=O)[C@@H](NC(=O)[C@H](Cc1ccccc1)NC(=O)[C@@H](NC(=O)CNC(=O)[C@H](CCC(=O)O)NC(=O)[C@]1(C)CCCN1C(=O)[C@@H](N)Cc1ccc(O)cc1)[C@@H](C)O)[C@@H](C)O)[C@@H](C)CC)[C@@H](C)CC)C(=O)N[C@@H](CCC(=O)O)C(=O)NCC(=O)NCC(=O)N1CCC[C@H]1C(=O)N[C@@H](CO)C(=O)N[C@@H](CO)C(=O)NCC(=O)N[C@@H](C)C(=O)N1CCC[C@H]1C(=O)N1CCC[C@H]1C(=O)N1CCC[C@H]1C(=O)N[C@@H](CO)C(N)=O
# B4: Example 194 (peptide)
# peptide: Y[αMeP]EGTFTSDYSILLDEK([AEEA-AEEA-γGlu-C20 diacid])AQHAFIEYLIEGGPSSGAPPPS-NH2
# modifications: N-terminus assumed
# SMILES: CC[C@H](C)[C@H](NC(=O)[C@H](CC(C)C)NC(=O)[C@H](Cc1ccc(O)cc1)NC(=O)[C@H](CCC(=O)O)NC(=O)[C@@H](NC(=O)[C@H](Cc1ccccc1)NC(=O)[C@H](C)NC(=O)[C@H](Cc1c[nH]cn1)NC(=O)[C@H](CCC(N)=O)NC(=O)[C@H](C)NC(=O)[C@H](CCCCNC(=O)COCCOCCNC(=O)COCCOCCNC(=O)CC[C@H](NC(=O)CCCCCCCCCCCCCCCCCCC(=O)O)C(=O)O)NC(=O)[C@H](CCC(=O)O)NC(=O)[C@H](CC(=O)O)NC(=O)[C@H](CC(C)C)NC(=O)[C@H](CC(C)C)NC(=O)[C@@H](NC(=O)[C@H](CO)NC(=O)[C@H](Cc1ccc(O)cc1)NC(=O)[C@H](CC(=O)O)NC(=O)[C@H](CO)NC(=O)[C@@H](NC(=O)[C@H](Cc1ccccc1)NC(=O)[C@@H](NC(=O)CNC(=O)[C@H](CCC(=O)O)NC(=O)[C@]1(C)CCCN1C(=O)[C@@H](N)Cc1ccc(O)cc1)[C@@H](C)O)[C@@H](C)O)[C@@H](C)CC)[C@@H](C)CC)C(=O)N[C@@H](CCC(=O)O)C(=O)NCC(=O)NCC(=O)N1CCC[C@H]1C(=O)N[C@@H](CO)C(=O)N[C@@H](CO)C(=O)NCC(=O)N[C@@H](C)C(=O)N1CCC[C@H]1C(=O)N1CCC[C@H]1C(=O)N1CCC[C@H]1C(=O)N[C@@H](CO)C(N)=O
# Target: T1, human gastric inhibitory peptide …
# Experiment: cell-based or functional assay
Binder,hGIPR cAMP EC50 ratio,hGIPR cAMP Rel EC50
B1,0.538,0.336 nM
B2,0.936,0.193 nM
B3,0.653,0.277 nM
B4,0.427,0.423 nM

# Target: human GLP-1 receptor (GLP-1R) (human, UniProt P43220 24-463)
# Experiment: cell-based or functional assay
Binder,hGLP1R cAMP EC50 ratio,hGLP1R cAMP Rel EC50
B1,0.359,0.162 nM
B2,0.602,0.0966 nM
B3,0.332,0.175 nM
B4,0.205,0.284 nM
